Read-outs that look alike come from different tables or passages of the source.
T1: endogenous HSF1 of CEM-GFP cells (human (endogenous in CEM-GFP)), Q00613
T1 chain: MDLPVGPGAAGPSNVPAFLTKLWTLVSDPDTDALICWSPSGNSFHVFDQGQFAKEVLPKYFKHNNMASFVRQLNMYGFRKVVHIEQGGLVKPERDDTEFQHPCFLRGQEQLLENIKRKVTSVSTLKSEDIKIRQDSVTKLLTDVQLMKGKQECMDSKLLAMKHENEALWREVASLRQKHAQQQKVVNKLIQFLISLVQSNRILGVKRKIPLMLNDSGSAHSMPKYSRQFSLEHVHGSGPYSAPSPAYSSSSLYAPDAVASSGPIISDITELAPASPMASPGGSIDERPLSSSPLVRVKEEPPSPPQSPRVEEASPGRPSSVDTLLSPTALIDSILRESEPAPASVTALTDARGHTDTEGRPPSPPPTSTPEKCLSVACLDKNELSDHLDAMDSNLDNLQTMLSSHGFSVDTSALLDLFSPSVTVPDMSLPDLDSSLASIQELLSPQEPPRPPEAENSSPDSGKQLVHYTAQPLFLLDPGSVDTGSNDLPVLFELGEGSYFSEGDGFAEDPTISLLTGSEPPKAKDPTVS

B1: endogenous HSF1 of CEM-GFP cells, Q00613 1-529 (natural protein)
chain: T1 chain
B2: P4 (2nd and 3rd Sp1 site) (dsDNA)
DNA 1: GGGAGGTGTGGCCTGGGCGGGAC
DNA 2: GTCCCGCCCAGGCCACACCTCCC
B3: P1 (both NF-kB sites of LTR) (dsDNA)
DNA 1: GGGACTTTCCGCTGGGGACTTTCC
DNA 2: GGAAAGTCCCCAGCGGAAAGTCCC
B4: P3 (1st and 2nd Sp1 site) (dsDNA)
DNA 1: TGGGCGGGACTGGGGAGTGGCG
DNA 2: CGCCACTCCCCAGTCCCGCCCA
B5: P2 (NF-kB and 3rd Sp1 site, LTR -91 to -69) (dsDNA)
DNA 1: GGGACTTTCCAGGGAGGTGTGGC
DNA 2: GCCACACCTCCCTGGAAAGTCCC

Assays:
[1] = biological target: T1, endogenous HSF1 of CEM-GFP cells (human …); experiment: cross-linking; conditions: remark: other sources report otherwise
His-HSF1 [2] = biological target: T2, His-HSF1 (human, UniProt Q00613 1-529); experiment: EMSA
His-HSF1 [3] = biological target: T2, His-HSF1; experiment: EMSA; remark: listed apart in the source

Row | Binder | binding result (His-HSF1 [2]) | also measured
1 | B1 | – | stoichiometry N [1]: 3
2 | B2 | no binding | –
3 | B3 | no binding | –
4 | B4 | no binding | –
5 | B5 | – | binding result (His-HSF1 [3]): binds

Source: article PMC3152347
